Data on five molecules can be found in patent US20120121507A1 (NATIONAL RESEARCH COUNCIL OF CANADA, published 2012).

In experiment [1] the target is T1, recombinant human clusterin (human, UniProt P10909 23-449).
T1 construct: also called rhCLU; rh-clusterin
The experiment in a line: SPR, rhCLU flowed over immobilized P3378R. As for the experimental part: (§1) Protein-peptide interactions were followed using a BIAcore 3000 instrument (Biosensor AB, Uppsala, Sweden). All binding experiments were carried out at 25° C. under a continuous flow of the HBS-EP buffer (20 mM HEPES, 150 mM NaCl, 3.4 mM EDTA and 0.05% Tween-200) at pH 7.4 over the sensor surface at a flow rate of 20 μL/min. Different concentrations of rh-clusterin in the HBS-EP buffer were injected over the peptide-derivatized sensor chips. Dissociation was monitored for up to 300 s post-injection. The surfaces were fully regenerated by 15 s injection of an HBS-EP buffer solution containing 5 mM NaOH. […] Reference responses from control flow cells, containing unmodified dextran surfaces, were subtracted from peptide-containing flow cells, for each analyte injection using the BiaEvaluation software version 3.0 (Biacore AB, Uppsala, Sweden).
This control peptide has the same amino acid content as P3378 but with a randomized sequence ([…]—SEQ ID NO:6). A lack of binding between rhCLU and this control peptide is evidenced by the linear nature of the Scatchard plot (inset; the response at equilibrium plotted against the concentration of rhCLU).

For experiment [2], the target named is T1, recombinant human clusterin. The experiment in a line: SPR (BIAcore 3000), rhCLU over immobilized P3378 (500 RU), kinetic global fit, 1:1 Langmuir. As for the experimental part: as §1
(§2) The resulting sensorgrams were used for kinetic rate determination through global fitting of the experimental data to a simple 1:1 Langmuir binding model. […] Affinity data (KD) from the binding studies were obtained by plotting the response in RU at the steady state, Req, versus the concentration of clusterin, C, and by fitting these curves to a one-site binding model, Req=C*xRmax/(C+KD) where Rmax is the value in RU at saturation and Req is the observed optical change in RU at each given C. […]
A general note: Surface plasmon resonance follows binding to a sensor surface in real time, without labels.

Experiment [3] has the same target. The experiment in a line: SPR (BIAcore 3000), rhCLU 5.5 nM-1.4 µM over immobilized P3378 (500 RU), global fit, 1:1 Langmuir. As for the experimental part: as §1, §2
For experiment [4] the target is unchanged. The experiment in a line: SPR, rh-clusterin 0-1.2 µM over immobilized P3378, no antibody; no antibody; rh-clusterin alone over immobilized P3378. The procedure:
as §1, with “All” for “Protein-peptide interactions were followed using a BIAcore 3000 instrument (Biosensor AB, Uppsala, Sweden). All”
(§3) The question of whether an EMT-blocking anti-clusterin monoclonal antibody (mAb) 16B5 and P3378 have overlapping or independent binding sites on clusterin was investigated using SPR biosensor analysis. Several mAbs that interact with clusterin have been isolated; five of these mAbs, including 16B5, interact with an epitope on clusterin that is important for the EMT-promoting action of clusterin. Accordingly, these anti-clusterin mAbs inhibit EMT in cell culture, and tumor metastasis in animal models (O'Connor-McCourt et al, WO 2007/030930). […]

Experiment [5] has the same target. The experiment in a line: SPR, rh-clusterin alone flowed over immobilized P3378, fit of the response against the clusterin concentration [inset]. The procedure:
as §1, with “All” for “Protein-peptide interactions were followed using a BIAcore 3000 instrument (Biosensor AB, Uppsala, Sweden). All”
as §3

Experiment [6] shares this target. The experiment can be described thus: SPR, rh-clusterin preincubated with mAb 16B5 (ratios of 1:1.7), flowed over immobilized P3378; rh-clusterin preincubated with mAb 16B5 (ratio 1:1.7). As for the experimental part:
Different concentrations of rh-clusterin in the HBS-EP buffer were injected over the peptide-derivatized sensor chips. Dissociation was monitored for up to 300 s post-injection. The surfaces were fully regenerated by 15 s injection of an HBS-EP buffer solution containing 5 mM NaOH. […] Reference responses from control flow cells, containing unmodified dextran surfaces, were subtracted from peptide-containing flow cells, for each analyte injection using the BiaEvaluation software version 3.0 (Biacore AB, Uppsala, Sweden).
as §3, with “2007/030930). Since clusterin-binding peptides can be used to non-invasively image clusterin-expressing tumors (primary tumors and metastases) in vivo, it is important to determine whether treatment with anti-clusterin mAbs may block peptide binding to the clusterin target and therefore compromise the ability of the peptides to image the tumor.” for “2007/030930).”

Experiment [7] shares this target. The experiment can be described thus: SPR, rhCLU flowed over immobilized P3375, global fit. As for the experimental part:
as §1, §2

The target is the same in experiment [8]. The experiment can be described thus: SPR (BIAcore 3000), rhCLU over immobilized P3375 (1200 RU), kinetic global fit, 1:1 Langmuir. The procedure: as §1, §2
Experiment [9] has the same target. The experiment can be described thus: SPR (BIAcore 3000), rhCLU 2 nM-1.1 µM over immobilized P3375 (1200 RU), global fit, 1:1 Langmuir. The procedure:
as §1, §2

Experiment [10] shares this target. The experiment in a line: SPR, rh-clusterin flowed over immobilized P3375R, response against the clusterin concentration [right panel]. The procedure:
as §1
The sequence dependence of the clusterin-peptide interactions was investigated using SPR biosensor analysis and peptides with scrambled sequences. Immobilization of the peptides on the sensor chips and the SPR experiments were conducted as described in Example 4.

The target is the same in experiment [11]. The experiment can be described thus: SPR, rhCLU 0 nM to 1.4 µM over immobilized P3376 (150 RU), response at equilibrium, one-to-one binding model. The procedure:
as §1, §2

Experiment [12] has the same target. The experiment can be described thus: SPR, rhCLU flowed over immobilized P3376, fit of the response against the clusterin concentration [inset]. As for the experimental part:
as §1, §2

The Kd is the concentration at which binding is half-saturated. Broadly, the koff is the rate constant with which the complex falls apart. What is called kon is a measure of how fast the partners come together. The EC50 (read off the curve) is the midpoint of the concentration-response curve.

T1 sequence (P10909 23-449 limits assumed): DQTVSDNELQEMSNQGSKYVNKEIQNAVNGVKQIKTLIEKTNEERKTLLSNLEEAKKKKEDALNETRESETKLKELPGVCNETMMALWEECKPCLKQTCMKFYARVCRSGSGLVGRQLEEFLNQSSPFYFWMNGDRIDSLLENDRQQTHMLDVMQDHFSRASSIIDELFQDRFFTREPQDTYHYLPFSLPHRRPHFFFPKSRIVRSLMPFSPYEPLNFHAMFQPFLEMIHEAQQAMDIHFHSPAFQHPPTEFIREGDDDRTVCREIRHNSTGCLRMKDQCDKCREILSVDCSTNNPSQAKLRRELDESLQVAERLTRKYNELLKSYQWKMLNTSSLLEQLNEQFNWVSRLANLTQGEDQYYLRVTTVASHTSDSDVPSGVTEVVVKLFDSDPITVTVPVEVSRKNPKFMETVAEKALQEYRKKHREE

B1: P3378R, randomized-sequence control peptide of P3378 (PYLHQSPHWKPSSGSGC) (peptide)
peptide: PYLHQSPHWKPSSGSGC
notes: Immobilised on the SPR chip; also called scrambled control peptide
B1: the binding result in experiment [1] was “no binding”.

B2: P3378 synthetic peptide (HPLSKHPYWSQP with C-terminal SGSGC extension) (peptide)
peptide: HPLSKHPYWSQPSGSGC
notes: Synthesised by Fmoc chemistry; In SPR it was immobilised on a CM5 chip by a thioether bond from the C-terminal Cys to maleimide; In STD-NMR it was free in solution
For the molecule B2, the Kd in [2] worked out at 300 nM; in experiment [4], 520 nM; in [5], 514 nM; in experiment [6], 1100 nM. Moreover, the off-rate (koff) in [3] amounted to 0.0052 s⁻¹. The on-rate (kon) in experiment [3] came to 17200 M⁻¹ s⁻¹.

B3: P3375 synthetic peptide (NTYWSQLLHFQT with C-terminal SGSGC extension) (peptide)
peptide: NTYWSQLLHFQTSGSGC
notes: In SPR it was immobilised through the C-terminal Cys (thioether); In STD-NMR it was free in solution
B3: the koff in [7] is 0.00603 s⁻¹. In addition, in [8], the Kd was determined as 540 nM. In experiment [9], the koff was found to be 0.006 s⁻¹ and the kon worked out at 11200 M⁻¹ s⁻¹.
Turning to LSLYHTNTQFWQSGSGC (Immobilised on the SPR chip) [P3375R, randomized version of P3375 (LSLYHTNTQFWQSGSGC)], the “EC50 (read off the curve)” value in [10] was about 200 nM.

B4: P3376 synthetic peptide (SHALPLTWSTAA with C-terminal SGSGC extension) (peptide)
peptide: SHALPLTWSTAASGSGC
notes: as for B3
For the molecule B4, the dissociation constant (Kd) in [11] is 340 nM; in experiment [12], 342 nM.
